From US20140031247

What was measured:
[1] = tested on: biotinylated recombinant Notch1 substrate N1-Sb1
[2] = tested on: N1-Sb1 substrate with P2 substitution C1752A
[3] = tested on: N1-Sb1 substrate with P2 substitution C1752M
[4] = tested on: N1-Sb1 substrate with P2 substitution C1752V

Chain of biotinylated recombinant Notch1 substrate N1-Sb1 (chain, as listed by the source): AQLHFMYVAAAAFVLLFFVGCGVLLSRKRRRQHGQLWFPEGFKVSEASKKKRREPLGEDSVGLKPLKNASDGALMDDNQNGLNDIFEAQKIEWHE

Substance: γ-secretase of HeLa cell membrane
- apparent Km [1]: the apparent Km of N1-Sb1 cleavage by γ-secretase is 0.15±0.03 µM

Substance: γ-secretase with E280A PS1 (membrane of N2a cells stably expressing E280A PS1)
- rate of γ-secretase cleavage compared with WT substrate [2]: significantly reduced reactivity for all three forms of γ-secretase (20-30% remaining)
- rate of γ-secretase cleavage compared with WT substrate [3]: E280A (185.5±7.4%) PS1
- rate of γ-secretase cleavage compared with WT substrate [4]: had no effect on WT (left panel) and E280A PS1 (right panel)
- Km [1]: the Km values for N1-Sb1 cleavage by PS1 wild-type, M146L, and E280A FAD mutants are 70, 49, and 50 nM, respectively

Substance: γ-secretase with M146L PS1 (membrane of N2a cells stably expressing M146L PS1)
- rate of γ-secretase cleavage compared with WT substrate [2]: significantly reduced reactivity for all three forms of γ-secretase (20-30% remaining)
- rate of γ-secretase cleavage compared with WT substrate [3]: significantly enhanced activity for M146L (166.4±6.1%)
- rate of γ-secretase cleavage compared with WT substrate [4]: considerably increased reactivity for M146L PS1 γ-secretase (141.3±17.9%0
- Km [1]: the Km values for N1-Sb1 cleavage by PS1 wild-type, M146L, and E280A FAD mutants are 70, 49, and 50 nM, respectively

Substance: γ-secretase with M146V PS1 (membrane of M146V PS1 knock-in mouse brain)
- rate of γ-secretase cleavage compared with WT substrate [3]: enhanced activity for M146V knock-in PS1 (127.4±3.7%)
- Km [1]: The Km values of WT and M146V PS1 are 60 and 48 nM, respectively

Substance: γ-secretase with wild type PS1 (membrane of knock-in wild type PS1 mouse brain)
- rate of γ-secretase cleavage compared with WT substrate [3]: C1752M substrate also had no effect on WT PS1 (left panel)
- Km [1]: The Km values of WT and M146V PS1 are 60 and 48 nM, respectively

Substance: γ-secretase with wild-type PS1 (membrane of N2a cells stably expressing WT PS1)
- rate of γ-secretase cleavage compared with WT substrate [2]: significantly reduced reactivity for all three forms of γ-secretase (20-30% remaining)
- rate of γ-secretase cleavage compared with WT substrate [3]: C1752M substrate had no effect on WT (left panel)
- rate of γ-secretase cleavage compared with WT substrate [4]: had no effect on WT (left panel) and E280A PS1 (right panel)
- Km [1]: the Km values for N1-Sb1 cleavage by PS1 wild-type, M146L, and E280A FAD mutants are 70, 49, and 50 nM, respectively
